From patent US20230190943A1, “ALGINIC ACID DERIVATIVE BONDED TO NONSTEROIDAL ANTI-INFLAMMATORY COMPOUND” (MOCHIDA PHARMACEUTICAL CO., LTD., priority 2018, published 2023)

How the values were obtained:
[1] = test system: Rat 1% Silver Nitrate-Induced Pain Model; experiment: Intra-articular administration in rat 1% silver nitrate-induced pain model, gait pain score (Example 24); format: in vivo; settings: for average pain score: scale 0-3, 0.1 mL/kg into left hindlimb knee joint
Procedure: Rats (Crj: SD system (SPF), male, 6 weeks of age) were anesthetized, and a 1% silver nitrate solution was administered into the left hindlimb knee joint cavity at a dose of 50 µL/joint.
The gait state of the rats on the day after the model was created was evaluated by scoring. The rats were divided into groups based on the obtained scores, and under inhalation anesthesia with isoflurane, each test substance was administered at 0.1 mL/kg into the rat left hindlimb knee joint (n = 8).
The gait score was given once a day for 5 days from the day on which test substance was administrated. Note that, as the score on the first day, the score before administration (grouping) was used. Under the blind, the gait state of each group was visually observed using the following pain score table based on the gait state.
The results are shown by the average pain score on Table 16. • 0: Normal • 1: mild claudication with lifting the foot • 2: severe claudication with completely closing the toe • 3: walking on three legs

[2] = Release test of free diclofenac, felbinac, ketoprofen or naproxen in sodium phosphate buffer (Example 23); format: physicochemical
Procedure: (set temperature of air conditioner). After confirming that no gel was formed, this solution was dispensed. Immediately after the dissolution, the amount of free diclofenac present in each solution was measured by LC-MS/MS as an initial state (day 0 of storage). Also, the other dispensed solutions were incubated at 37° C. for 1, 3, and 7 days, and then the amount of free diclofenac was measured. […] The MS conditions are as follows. • Ionization mode: ESI-negative • Ion source temperature: 300 degrees • Capillary voltage: -4000 V

[3] = rabbit, in vivo
Procedure: For each test substance, 4 rabbits were used, the whole body was fixed with a towel under no anesthesia, the area around the left knee j oint was wiped with alcohol, and then 0.1 mL/kg of each of the above test substances was administered into the j oint cavity from the outside of the rabbit knee using a Terumo 1 mL syringe equipped with a 26 G injection needle (manufactured by Terumo).
Rabbits were exsanguinated and killed under combined anesthesia by intramuscular administration of ketamine hydrochloride and xylazine. The joint capsule was incised just below the patella to expose the knee joint cavity, and the inside of the joint cavity was washed with 2 mL of physiological saline using a catheter with a Surflo indwelling needle 20 G, and the synovial fluid mixed with physiological saline was collected. The amount of DF in the recovered synovial fluid was measured by the following procedure.
The synovial tissue was separated and collected from the knee joint after collecting the synovial fluid in (2) above. The collected synovial tissue was washed with physiological saline to remove the attached synovial fluid. After removing the patella, the synovial tissue was placed in a tube, and the tissue was cut into small pieces with scissors. […] The same extraction operation as in (2) above was performed, and the amount of free diclofenac was measured using LC-MS/MS.

[4] = Day 1 (score before administration, grouping)
[5] = pH 5.3, day 1, free drug (diclofenac, felbinac, ketoprofen or naproxen)
[6] = pH 5.3, day 3, free drug (diclofenac, felbinac, ketoprofen or naproxen)
[7] = pH 5.3, day 7, free drug (diclofenac, felbinac, ketoprofen or naproxen)
[8] = pH 7.0, day 1, free drug (diclofenac, felbinac, ketoprofen or naproxen)
[9] = pH 7.0, day 3, free drug (diclofenac, felbinac, ketoprofen or naproxen)
[10] = pH 7.0, day 7, free drug (diclofenac, felbinac, ketoprofen or naproxen)

Row | Compound | average pain score [1, 4] | average pain score ([1]; Day 2) | average pain score ([1]; Day 3) | average pain score ([1]; Day 4) | average pain score ([1]; Day 5) | Release Rate in Release Test at pH 5.3 [2, 5] [%] | Release Rate in Release Test at pH 5.3 [2, 6] [%] | Release Rate in Release Test at pH 5.3 [2, 7] [%] | Release Rate in Release Test at pH 7.0 [2, 8] [%] | Release Rate in Release Test at pH 7.0 [2, 9] [%] | Release Rate in Release Test at pH 7.0 [2, 10] [%] | DF retained in the synovial tissue continuously until ... after administration [3] [days] | degree of pain relief (recovery from pain) ([1]; compared with diclofenac, alginic acid and diclofenac + alginic acid administration groups)
1 | O=C([O-])Cc1ccccc1Nc1c(Cl)cccc1Cl.[Na+] [DF, Diclofenac Na, reference compound] | 2.5 | 1.9 | 1.9 | 1.0 | 0.8 |  |  |  |  |  |  |  | 
2 | Diclofenac-(2-Amino-1-(4-Hydroxypiperidin-1-Yl)Ethan-1-One)-Alginic Acid Derivative [Compound 63a] |  |  |  |  |  | 0.0 | 0.2 | 0.2 | 0.3 | 0.8 | 2.2 | ≥ 84 | 
3 | Diclofenac-(2-Amino-N-(2-Hydroxyethyl)Acetamide)-Alginic Acid Derivative [Compound 53b] | 2.5 | 1.0 | 0.9 | 0.5 | 0.4 | 0.6 | 0.8 | 1.0 | 0.9 | 2.3 | 6.4 | ≥ 84 | faster
